In the assay the target is SARS-CoV-2 Spike Protein (RBD)(R319-F541).mmH, unmodified (SARS-CoV-2). Description: Luminex, supernatant on bead-coupled RBD.mmH. To be noted: remark: other sources report otherwise.

B1: mAb11006 (antibody, V domains shown)
VH: EVQLVESGGGLVQPGGSLRLSCAASGFIVSRNYMSWVRQAPGKGLEWVSVIYSGGSTFYADSVKGRFTISRHNSKNTLYLQMNSLKAEDTAVYYCARELRGYFDYWGQGTLVTVSS
VL: DIQLTQSPSFLSASVGDRVTITCWASQGISSYLAWYQQKPGKAPKLLIYAASTLQSGVPSRFSGSGSGTEFTLTISSLQPEDFATYYCQLLNSYPYTFGQGTKLEIK
Consider B1, for which the Binding signal (MFI) was 2040 MFI.

The values above are taken from patent US20220356230A1.
